Measurements: patent publication US9549967B2, “Regulation of sodium channels by PLUNC proteins” (The University of North Carolina at Chapel Hill, priority 2009, dated 2017)
Entries after “also recorded” stand apart in the source; their conditions may differ.

Target: T1, ENaC (Homo sapiens, UniProt P37088+P51168+P51170)
T1 construct: endogenous in cells; host or cells: primary human bronchial epithelial cultures
T1 sequence (P37088 1-669): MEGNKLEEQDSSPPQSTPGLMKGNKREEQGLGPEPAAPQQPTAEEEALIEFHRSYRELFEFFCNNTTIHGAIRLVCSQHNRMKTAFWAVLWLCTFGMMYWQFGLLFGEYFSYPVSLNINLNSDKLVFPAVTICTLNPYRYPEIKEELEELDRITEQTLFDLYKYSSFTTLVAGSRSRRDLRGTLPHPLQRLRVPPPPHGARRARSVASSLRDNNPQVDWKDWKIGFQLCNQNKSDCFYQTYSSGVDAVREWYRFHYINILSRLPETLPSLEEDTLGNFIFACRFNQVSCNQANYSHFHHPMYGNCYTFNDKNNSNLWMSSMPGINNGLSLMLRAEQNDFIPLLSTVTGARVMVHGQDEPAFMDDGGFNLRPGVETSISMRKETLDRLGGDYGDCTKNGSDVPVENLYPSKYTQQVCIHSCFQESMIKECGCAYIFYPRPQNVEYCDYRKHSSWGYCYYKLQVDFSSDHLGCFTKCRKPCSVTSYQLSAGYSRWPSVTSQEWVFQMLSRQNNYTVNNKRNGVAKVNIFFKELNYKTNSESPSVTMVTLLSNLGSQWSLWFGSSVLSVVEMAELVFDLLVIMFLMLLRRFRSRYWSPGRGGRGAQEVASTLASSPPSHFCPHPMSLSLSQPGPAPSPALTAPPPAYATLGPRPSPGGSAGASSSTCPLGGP
T1 sequence (P51168 1-640): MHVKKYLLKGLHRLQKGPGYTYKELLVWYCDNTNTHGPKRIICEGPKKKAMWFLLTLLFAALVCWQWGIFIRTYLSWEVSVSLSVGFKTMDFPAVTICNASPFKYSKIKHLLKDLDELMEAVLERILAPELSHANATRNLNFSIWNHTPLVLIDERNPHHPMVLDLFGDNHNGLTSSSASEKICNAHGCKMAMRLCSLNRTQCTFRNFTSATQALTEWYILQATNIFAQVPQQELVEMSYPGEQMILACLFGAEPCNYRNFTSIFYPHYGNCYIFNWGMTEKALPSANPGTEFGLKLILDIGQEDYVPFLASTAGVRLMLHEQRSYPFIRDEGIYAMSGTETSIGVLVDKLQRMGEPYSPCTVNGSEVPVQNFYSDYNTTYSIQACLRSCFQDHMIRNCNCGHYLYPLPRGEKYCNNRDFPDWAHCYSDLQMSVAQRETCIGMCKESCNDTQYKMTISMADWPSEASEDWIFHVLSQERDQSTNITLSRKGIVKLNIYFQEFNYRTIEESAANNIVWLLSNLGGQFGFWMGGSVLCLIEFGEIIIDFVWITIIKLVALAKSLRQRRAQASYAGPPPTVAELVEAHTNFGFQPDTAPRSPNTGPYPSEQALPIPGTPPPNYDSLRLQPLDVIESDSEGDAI
T1 sequence (P51170 1-649): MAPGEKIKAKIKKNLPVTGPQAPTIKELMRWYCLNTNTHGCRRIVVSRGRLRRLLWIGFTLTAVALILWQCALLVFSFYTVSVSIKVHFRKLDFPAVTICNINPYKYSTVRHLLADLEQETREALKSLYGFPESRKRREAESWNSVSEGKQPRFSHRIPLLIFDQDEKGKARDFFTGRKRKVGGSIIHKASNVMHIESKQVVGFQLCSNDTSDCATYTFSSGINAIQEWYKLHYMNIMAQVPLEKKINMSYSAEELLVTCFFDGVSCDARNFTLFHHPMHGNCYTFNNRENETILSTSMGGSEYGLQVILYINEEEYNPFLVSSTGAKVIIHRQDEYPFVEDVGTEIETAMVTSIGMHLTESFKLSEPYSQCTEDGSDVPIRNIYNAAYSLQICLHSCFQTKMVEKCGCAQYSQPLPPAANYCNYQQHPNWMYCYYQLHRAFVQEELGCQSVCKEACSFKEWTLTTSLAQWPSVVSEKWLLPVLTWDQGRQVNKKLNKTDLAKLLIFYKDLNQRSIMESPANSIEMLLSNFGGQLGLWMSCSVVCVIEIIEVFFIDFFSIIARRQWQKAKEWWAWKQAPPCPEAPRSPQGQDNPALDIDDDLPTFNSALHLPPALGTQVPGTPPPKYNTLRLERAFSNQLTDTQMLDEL
Experiment: Transepithelial voltage under thin film conditions in human bronchial epithelial cultures (microelectrode)
Assay type: cell-based
Settings: prewashed cultures, PD remeasured 45 min later; DTT-reduced vs 50 ng/ml recombinant SPLUNC1
Text: Tissue procurement and cell culture: Cells were harvested by enzymatic digestion from human bronchial tissue as previously described under a protocol approved by the UNC School of Medicine IRB (Tarran et al., J. Gen. Physiol. 127:591 (2006)). Human excess donor lungs and excised recipient lungs were obtained at the time of lung transplantation from portions of main stem or […] bronchi and cells were harvested by enzymatic digestion. All preparations were maintained at an air-liquid interface in a modified bronchial epithelial medium and used 2-5 weeks after seeding on 12 mm T-Clear inserts (Corning Costar) coated with human placental type VI collagen (Sigma). Phosphate buffered saline (PBS) was used for washing human bronchial epithelial culture mucosal surfaces.
Microelectrode studies. A single-barreled potential difference-sensing electrode was placed in the airway surface liquid by micromanipulator and used in conjunction with a macroelectrode in the serosal solution to measure transepithelial voltage using a voltmeter (World Precision Instruments). […] Transepithelial resistance was routinely measured using the EVOM system (WPI) as previously described (Tarran et al., J. Gen. Physiol. 127:591 (2006)).

B1: recombinant SPLUNC1 that had been reduced with DTT: recombinant SPLUNC1 reduced with DTT (protein, UniProt Q9NP55 20-256, looked up)
BPI fold-containing family A …: QFGGLPVPLDQTLPLNVNPALPLSPTGLAGSLTNALSNGLLSGGLLGILENLPLLDILKPGGGTSGGLLGGLLGKVTSVIPGLNNIIDIKVTDPQLLELGLVQSPDGHRLYVTIPLGIKLQVNTPLVGASLLRLAVKLDITAEILAVRDKQERIHLVLGDCTHSPGSLQISLLDGLGPLPIQGLLDSLTGILNKVLPELVQGNVCPLVNEVLRGLDITLVHDIVNMLIHGLQFVIKV
modifications: DTT-reduced
inhibition of the transepithelial PD (SPLUNC1 activity): abolished; also recorded: attenuated
